The target of this assay is T1, human TMEM192 with a C-terminally fused HA epitope (human), Q8IY95.
T1 chain: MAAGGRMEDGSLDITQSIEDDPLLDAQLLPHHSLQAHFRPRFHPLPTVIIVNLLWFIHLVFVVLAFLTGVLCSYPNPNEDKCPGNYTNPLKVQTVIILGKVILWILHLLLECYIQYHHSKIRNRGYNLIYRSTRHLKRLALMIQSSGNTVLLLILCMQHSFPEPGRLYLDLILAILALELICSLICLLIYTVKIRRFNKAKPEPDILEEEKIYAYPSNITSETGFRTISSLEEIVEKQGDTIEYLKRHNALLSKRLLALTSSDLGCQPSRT
Put plainly: non-reducing SDS-PAGE and Western blot; total lysates of transiently transfected HeLa cells denatured 5 min at 95°C in the absence of DTT; detection with anti-HA antibody 3F10; shows only disulphide-linked dimers. The note with it: remark: other sources report otherwise. Background: In western blotting, separated proteins are transferred to a membrane and probed.

B1: human TMEM192 with a C-terminally fused HA epitope, Q8IY95 1-271 (natural protein)
chain: MAAGGRMEDGSLDITQSIEDDPLLDAQLLPHHSLQAHFRPRFHPLPTVIIVNLLWFIHLVFVVLAFLTGVLCSYPNPNEDKCPGNYTNPLKVQTVIILGKVILWILHLLLECYIQYHHSKIRNRGYNLIYRSTRHLKRLALMIQSSGNTVLLLILCMQHSFPEPGRLYLDLILAILALELICSLICLLIYTVKIRRFNKAKPEPDILEEEKIYAYPSNITSETGFRTISSLEEIVEKQGDTIEYLKRHNALLSKRLLALTSSDLGCQPSRT
For the molecule B1, the stoichiometry N worked out at 2.

For orientation: stoichiometry N means a count of units in the complex or per binding partner.

These data come from PMC5546430.
